Measured values: the Human Domainome abundance scans (Beltran et al. 2025)

B1: PDZ and LIM domain protein 2, residues 284 to 339; numbered along this chain, Q96JY6 (parent)
chain: HTCEKCSTSIANQAVRIQEGRYRHPGCYTCADCGLNLKMRGHFWVGDELYCEKHAR

Variants of: B1
Assay: abundance fitness (aPCA) (normalised: wild type 0, dead -1); higher = more abundant; growth selection in yeast, the domain comes from the species named
Settings: Homo sapiens

Abundance fitness of substitutions, site by site:
Q18: P -0.47, S 0.03, T -0.051, F -0.303, M -0.253, H -0.451, A 0.043, E 0.002
C30: H -0.669, E -0.834, I -1.06, A -1.01, G -0.618, K -1.13
C27: K -0.39, F -1.02, Q -0.268, G -0.514, V -0.661, L -0.535, S -0.598, P -0.425, N -0.826, R -0.838, I -0.904, M -0.627, W -0.602, Y -0.885, A -0.428, E -0.105, T -0.442
Q13: D 0.448, M -0.223, E 0.194, A -0.399, F -0.049, V -0.327, L -0.36, G 0.098, H -0.767, S -0.128, Y -0.775, P -0.227, R -0.826, I -0.778, K -0.501, C -0.216, W -1.19, T -0.11
N12: W -0.78, D 0.595, C -0.135, Q -0.044, Y -0.622, K -0.295, S -0.028, G -0.408, V -0.206, M -0.123, T 0.14, F -0.494, I 0.021, E 0.498, A -0.096, H 0.219, R -0.73
G26: S 0.069, E 0.277, M 0.037, I 0.08, H 0.525, D 0.227, P -0.016, L 0.122, K 0.209, Q 0.232, N -0.083, V 0.101, F 0.19, T 0.158, C 0.006, W 0.072, A 0.033, R 0.127
